Results: patent US20140220033A1, “Administration of an Anti-Activin-A Compound to a Subject” (Santa Maria Biotherapeutics, Inc., priority 2013, published 2014)

Experiments:
[1] = test system: caspase-3; assay: Active caspase-3 immunostaining in TOV-21G xenograft tumor sections; assay type: in vivo, mouse; conditions: FIG. 15C
Description: (§1) 5×10^6 TOV-21G ovarian cancer cells were implanted subcutaneously into individual female athymic nu/nu mice (Harlan). Treatment was initiated at day 12 after tumor implantation, when the average tumor volume reached approximately 150 mm^3. The mice received PBS, sActRIIB (30 mg/kg, SC, 1×/week) or activin-A antibody (30 mg/kg, SC, 2×/week). In a separate chemotherapy combination experiment, the mice were treated with PBS, sActRIIB (10 mg/kg, SC, 1×/week), 5-FU (50 mg/kg, IP, 3 cycles, 4 daily injections per cycle) or sActRIIB and 5-FU combination at the same doses above.
(§2) Zinc-formalin fixed paraffin tumor tissue sections of 4 μm in thickness were prepared. The sections were subjected to antigen retrieval by microwave 3 min in Unmask solution (Vector H-3300) followed by incubation in 10 μg/ml Proteinase-K for 20 min and in 1% H2O2 in dH2O for 10 min at room temperature. The sections were further incubated in 0.1% Tween-20 in PBS for 3 min to permeabilize the cell membrane and in goat serum for 30 min to block non-specific binding. The sections were then incubated at room temperature with specific primary antibody for 3 hours followed by incubation in biotinylated or fluorescently labeled secondary antibody. […] The immunostained tissue sections were analyzed and photographed using a Nikon Eclipse 90i microscope equipped with DS-Ril camera. […]

[2] = test system: caspase-3; assay: Active caspase-3 immunostaining in gonadal tumor sections of inh-KO mice; assay type: in vivo, mouse; conditions: ovarian and testicular tissue sections of inh-KO mice, regions of residual tumor cells; FIG. 9
Description: (§3) 12-week-old female and 8-week-old male inh-KO mice with fully established ovarian or testicular tumors received a single injection of PBS or sActRIIB (30 mg/kg, SC). As a control, age-matched wild-type littermates received a single injection of PBS. Ovarian and testicular organ weights were determined by necropsy 14 days after the injection.
Zinc-formalin fixed paraffin tumor tissue sections of 4 μm in thickness were prepared. The sections were subjected to antigen retrieval by microwave 3 min in Unmask solution (Vector H-3300) followed by incubation in 10 μg/ml Proteinase-K for 20 min and in 1% H2O2 in dH2O for 10 min at room temperature. The sections were further incubated in 0.1% Tween-20 in PBS for 3 min to permeabilize the cell membrane and in goat serum for 30 min to block non-specific binding. The sections were then incubated at room temperature with specific primary antibody for 3 hours followed by incubation in biotinylated or fluorescently labeled secondary antibody. Substrate developed in Vector SG kit (SK-4700) or DAB and nuclear-counterstained in Vector Fast Red (H-3403) or in hematoxylin. The immunostained tissue sections were analyzed and photographed using a Nikon Eclipse 90i microscope equipped with DS-Ril camera. […]

[3] = test system: ovarian tumors in inh-KO mice; assay: Ovarian tumor mass in inh-KO mice (necropsy); assay type: in vivo, mouse; conditions: 12-week-old female inh-KO mice; single dose 30 mg/kg SC; necropsy 14 days after injection; FIG. 3A, 3B
Description: as §3

[4] = test system: Ang-1; assay: Ang-1 immunostaining in TOV-21G xenograft tumor sections; assay type: in vivo, mouse; conditions: treated vs untreated sections (strong immunostaining); FIG. 15A
Description: as §1, §2

[5] = molecular target: T1, activin-A (Mus musculus, UniProt Q04998); assay: Serum activin-A levels in inh-KO mice (ELISA); assay type: in vivo; conditions: single dose 30 mg/kg SC
T1 construct: from tissue; host or cells: serum of inhibin-alpha knockout (inh-KO) mice and wild-type littermates
T1 sequence (Q04998 309-424): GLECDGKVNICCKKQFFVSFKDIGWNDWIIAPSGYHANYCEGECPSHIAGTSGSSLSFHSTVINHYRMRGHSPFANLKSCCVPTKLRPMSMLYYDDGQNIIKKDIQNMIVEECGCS
Description: as §3
All serum samples from ovarian cancer patients and healthy subjects were collected under informed consent and were purchased from Bioreclamation, Inc. The serum samples were diluted in buffer (DY995, R&D Systems) and pretreated overnight at 4° C. with 4 M urea (Sigma) to dissociate any protein bound to activin-A. The samples were then transferred to 96 well plates pre-coated with an activin-A monoclonal antibody. After 2 hr incubation at room temperature and a washing step (0.05% Tween 20 in DPBS), a biotin-labeled activin-A monoclonal antibody was added for 1 hr at room temperature. […] An acidic stopping solution (KPL) was added and the degree of enzymatic turnover of the substrate was determined by wavelength absorbance measurement at 450 nm. The absorbance measured is directly proportional to the concentration of activin-A present. A standard curve of absorbance versus activin-A concentration was used to determine the amount of Activin-A in the test sample. Serum activin-A levels in inh-KO mice were measured by using ELISA.

[6] = test system: TOV-21G ovarian cancer xenografts; assay: TOV-21G ovarian cancer xenograft growth in nude mice; assay type: in vivo, mouse
Description: as §1
For all xenograft experiments, the tumor sizes were measured longitudinally by using an electronic caliper Immediately prior to the 1st dose, the tumor-bearing mice were randomized to ensure even distribution in tumor sizes across different groups. Tumor volumes (mm^3) were calculated as tumor length (mm)×tumor width (mm)×tumor height (mm) Tumor weights were determined by necropsy.
(§4) In another experiment, athymic nude mice received TOV-21G xenografts in the abdominal flank. After 14 days, subcutaneous hu-sActRIIB-Fc was administered weekly alone or in combination with 5-FU.

[7] = Body weight of TOV-21G xenograft-bearing mice; assay type: in vivo, mouse; conditions: TOV-21G xenograft-bearing athymic nude mice; during the course of the experiment; vehicle controls lost 10%
Description: as §4

[8] = test system: E-cadherin; assay: E-cadherin in ovarian tumors of inh-KO mice (Western blot, immunostaining); assay type: in vivo, mouse
Description: as §3
Protein extracts were prepared from cell cultures or tissues in T-PER tissue protein extraction reagent (Pierce) containing a mixture of protease inhibitors (Roche). A pool of 50 μg total protein for each group containing equal amounts of protein extract isolated from individual animals was separated by NuPAGE 4-12% Bis-Tris gel (Invitrogen) and transferred to PVDF. The membranes were probed with primary antibodies against total Smad2, p-Smad2 or E-cadherin (1:1000; Cell Signaling), endoglin, osteopontin (1:500; R&D Systems), IGFBP-1, IGFBP-2 (1:500; Abcam) followed by HRP-conjugated secondary antibody (1:2000; Cell Signaling). The membranes were stripped and re-probed with antibody against α-tubulin (1:1000; Cell Signaling).
Zinc-formalin fixed paraffin tumor tissue sections of 4 μm in thickness were prepared. […] The immunostained tissue sections were analyzed and photographed using a Nikon Eclipse 90i microscope equipped with DS-Ril camera. […]

B1: sActRIIB: extracellular domain of human activin type-2B receptor fused to IgG2 Fc, expressed in CHO cells; sequence in the 26th table (protein)
chain: ETRWCIYYNANWELERTNQGLERCEGEQDKRLHCYASWRNSSGTIELVKKGCWLDDFNCYDRQECVATEENPQVYFCCCEGNFCNERFTHLPEAGGPEVTYEPPPTAPTGGGGSVECPPCPAPPVAGPSVFLFPPKPKDTLMISRTPEVTCVVVDVSHEDPEVQFNWYVDGVEVHNAKTKPREEQFNSTFRVVSVLTVVHQDWLNGKEYKCKVSNKGLPAPIEKTISKTKGQPREPQVYTLPPSREEMTKNQVSLTCLVKGFYPSDIAVEWESNGQPENNYKTTPPMLDSDGSFFLYSKLTVDKSRWQQGNVFSCSVMHEALHNHYTQKSLSLSPGK
modifications: left off: a dimerising Fc or GST
- active caspase-3 in TOV-21G tumors [1]: profound increases
- active caspase-3 immunostaining [2]: strong immunostaining of active caspase-3
- ovarian tumor mass [3]: regressed rapidly to the sizes seen in the WT control mice
- Ang-1 immunostaining in TOV-21G tumor sections [4]: virtually none
- serum activin-A levels ([5]; inh-KO mice with established gonadal tumors, within one day after administration, FIG. 2A, 2B): reduced the elevated activin-A in the inh-KO mice to normal control levels
- duration of activin-A-neutralizing effect ([5]; inh-KO mice): persisted throughout the 14-day study period
- tumor growth reduction ([6]; 52 days after tumor cell injection, versus vehicle-treated tumor-bearing group, p<0.0001, weekly SC hu-sActRIIB-Fc from day 14, alone or with 5-FU): 43%
- rate of tumor growth of TOV-21G xenografts ([6]; chemotherapy combination experiment, sActRIIB 10 mg/kg SC 1x/week, 5-FU 50 mg/kg IP 3 cycles, alone or together, FIG. 13): decreased the rate of tumor growth significantly
- growth of TOV-21G ovarian cancer xenografts ([6]; nude mice, sActRIIB 30 mg/kg SC 1x/week or activin-A antibody 30 mg/kg SC 2x/week from day 12, FIG. 10B): significantly inhibited the growth
- body weight increase [7]: 26%
- E-cadherin immunoreactivity in ovarian sections ([8]; FIG. 6B): reappearance of distinctive E-cadherin immunoreactivity
- E-cadherin protein in ovarian tumors (Western blot) ([8]; single injection, FIG. 6A): dramatically restored the lost E-cadherin
